Measurements published in US20230312722A1 (NONA BIOSCIENCES SUZHOU, published 2023).
Read-outs that look alike come from different tables or passages of the source. One block for each binder: values may come before it.

How the values were obtained:
[1] = biological target: T1, human B7H4 on the cell surface (human, UniProt Q7Z7D3 25-282); test: FACS on SK-BR-3 cells
T1 construct: whole, on cells; also called CHOK1/hu B7H4; B7H4 on SK-BR-3
T1 sequence (looked up): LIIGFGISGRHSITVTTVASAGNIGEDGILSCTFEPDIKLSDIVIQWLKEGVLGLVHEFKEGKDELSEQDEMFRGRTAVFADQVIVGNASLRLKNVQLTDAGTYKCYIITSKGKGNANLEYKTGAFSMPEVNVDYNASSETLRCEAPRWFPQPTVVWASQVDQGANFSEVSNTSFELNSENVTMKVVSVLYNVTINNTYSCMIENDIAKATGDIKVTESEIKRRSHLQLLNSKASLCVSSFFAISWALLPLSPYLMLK
Experimental: (§1) SK-BR-3 cells were digested. T cells were isolated using the human T cell isolation kit (Miltenyi, #130-096-535) as described in the method of the instruction, and resuspended with PBS containing 2% BSA. The cell density was adjusted to 1×10⁶ cells/mL. The cells were seeded in a 96-well V-bottom plate (Corning, #3894) at 100 μL/well, followed by the addition of test antibodies diluted in a 3-fold gradient at a concentration that was 2 times the final concentration, each at 100 μL/well. The cells were incubated at 4° C. for 2 h away from light. Thereafter, the cells in each well were rinsed twice with 100 μL of pre-cooled PBS containing 2% BSA, and centrifuged at 500 g at 4° C. for 5 min, and then the supernatant was discarded. Then each well was added with 100 μL of fluorescent secondary antibody (Alexa Fluor 488-conjugated AffiniPure Goat Anti-Human IgG, Fcγ Fragment Specific, Jackson, #109-545-098, diluted in a 1:500 ratio), and the plate was incubated away from light at 4° C. for 1 h. The cells in each well were washed twice with 100 μL of pre-cooled PBS containing 2% BSA, and centrifuged at 500 g at 4° C. for 5 minutes, and then the supernatant was discarded. Finally, the cells in each well were resuspended with 200 μL of pre-cooled PBS containing 2% BSA, and the fluorescence signal values were read using an ACEA Novocyte3000 flow cytometer.

CD3 on human T cells [2] = biological target: T2, CD3 on human T cells (human, UniProt P07766 23-207; P04234 22-171; P09693 23-182); test: FACS on human T cells
Experimental: as §1

CD3 on human T cells [3] = biological target: T2, CD3 on human T cells; test: FACS on human T cells; EC50 printed as n.d., curve still rising at 100 nM
Experimental: as §1

[4] = biological target: T1, human B7H4 on the cell surface; test: FACS on SK-BR-3 cells; the printed number lies below the lowest concentration shown (0.03 nM)
Experimental: as §1

CD3 on human T cells [5] = biological target: T2, CD3 on human T cells; test: FACS on human T cells; remark: listed apart in the source
Experimental: as §1

CD3 on human T cells [6] = biological target: T2, CD3 on human T cells; test: FACS on human T cells; remark: listed apart in the source
Experimental: as §1

CD3 on human T cells [7] = biological target: T2, CD3 on human T cells; test: FACS on human T cells; remark: listed apart in the source
Experimental: as §1

[8] = biological target: T1, human B7H4 on the cell surface; test: FACS on SK-BR-3 cells, expression supernatant at 1 X and 10X
[9] = biological target: T3, B7-H4 (Acro Biosystems, #B74-H82E2) (UniProt Q7Z7D3 29-258); test: BLI epitope competition; 1st Ab = row; competitor (2nd Ab) PR002418; inhibition of the 2nd Ab signal
T3 construct: Bought protein; also called B7-H4 captured on SA sensor
T3 sequence (looked up): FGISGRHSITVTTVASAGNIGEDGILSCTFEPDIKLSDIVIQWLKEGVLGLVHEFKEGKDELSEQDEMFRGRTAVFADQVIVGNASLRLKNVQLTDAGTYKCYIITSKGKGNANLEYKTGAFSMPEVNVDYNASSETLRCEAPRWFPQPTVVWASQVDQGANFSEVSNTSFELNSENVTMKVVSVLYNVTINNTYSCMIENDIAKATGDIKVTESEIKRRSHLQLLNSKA
Experimental: (§2) Step one, acquisition of 100% signal of antibodies: B7-H4 (Acro Biosystems, #B74-H82E2-200 μg) was captured at a capture height of 0.25 nm using an SA sensor (Fortebio, #18-5019). The sensor was equilibrated in a buffer for 120 s and then immersed in each antibody diluted to 100 nM for 240 s, and the final signal of the antibody binding to B7-H4 was recorded as the 100% signal of the antibody. Step two, epitope competition experiment: B7-H4 was captured using an SA sensor at a capture height of 0.25 nm. The sensor was immersed in a primary antibody (at a concentration of 100 nM) for 240 s, and then the SA sensor was immersed in a mixture of the primary and secondary antibodies (both at a final concentration of 100 nM) for 240 s, and the difference in signals after immersion of the sensor in the antibody mixture was recorded as the signal of the antibody as the secondary antibody. The inhibition rate was calculated according to the following formula: […]

[10] = biological target: T4, Human B7H4 (his tag), Sino Biological #10738-H08H (human, UniProt Q7Z7D3 25-259); test: SPR (Biacore T200), antibody captured on Protein A, B7H4-his as analyte, 1:1 fit
T4 construct: extracellular domain; Bought protein; also called hB7H4-ECD-his
T4 sequence (looked up): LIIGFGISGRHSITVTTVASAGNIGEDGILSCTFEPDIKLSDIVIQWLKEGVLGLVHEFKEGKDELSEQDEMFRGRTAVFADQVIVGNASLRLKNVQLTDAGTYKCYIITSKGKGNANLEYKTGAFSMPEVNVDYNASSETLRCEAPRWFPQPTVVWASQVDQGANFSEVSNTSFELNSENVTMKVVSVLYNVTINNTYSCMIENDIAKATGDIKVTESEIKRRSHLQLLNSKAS
Experimental: 10×HBS-EP+ (GE Healthcare, #BR-1006-69) was diluted 10-fold and then taken as an experimental buffer. The flow rate was set at 10 μL/min, and Protein A was coupled to 4 channels of a chip CM5 (GE Healthcare, #BR-1005-30) through the following procedures: 1) the injection time was set to 800 s, and a fresh mixture of 50 mM NHS and 200 mM EDC was injected into the 4 channels in a volume ratio of 1:1; 2) Protein A was diluted to 20 μg/mL with sodium acetate (GE Healthcare, #BR-1003-50) at pH 4.5 and injected into each channel for 800 s; and 3) 1 M ethanolamine at pH 8.5 was injected for 800 s to block the remaining active carboxyl groups on the chip surface. After blocking, the instrument was equilibrated with 1×HBS-EP+buffer for 2 hours, and the final coupling level of Protein A was about 2000 RU.
A multi-cycle kinetics mode was set at Biacore T200, and each cycle included antibody capture, analyte binding and chip regeneration. […] Finally, 10 mM glycine-hydrochloric acid at pH 1.5 (GE Healthcare, #BR-1003-54) was injected at the same flow rate for 30 s to regenerate the chip.
The experimental results were analyzed using the Biacore T200 analysis software 2.0, with channel 1 subtracted as a reference channel and a 1:1 kinetic fitting model selected as an analysis model.

[11] = biological target: T3, B7-H4 (Acro Biosystems, #B74-H82E2); test: BLI epitope competition; 1st Ab = row; competitor (2nd Ab) Control antibody 2; inhibition of the 2nd Ab signal
Experimental: as §2

[12] = biological target: T3, B7-H4 (Acro Biosystems, #B74-H82E2); test: BLI epitope competition; 1st Ab = row; competitor (2nd Ab) PR002421; inhibition of the 2nd Ab signal
Experimental: as §2

[13] = biological target: T3, B7-H4 (Acro Biosystems, #B74-H82E2); test: BLI epitope competition; 1st Ab = row; competitor (2nd Ab) Control antibody 1; inhibition of the 2nd Ab signal
Experimental: as §2

T2 sequence (P07766 23-207 limits assumed, chain 1 of 3): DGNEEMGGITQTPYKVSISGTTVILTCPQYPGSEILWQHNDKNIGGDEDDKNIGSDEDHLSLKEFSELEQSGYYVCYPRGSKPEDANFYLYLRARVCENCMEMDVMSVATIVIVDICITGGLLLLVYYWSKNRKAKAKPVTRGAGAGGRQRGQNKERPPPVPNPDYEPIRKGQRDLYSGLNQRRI
T2 sequence (P04234 22-171 limits assumed, chain 2 of 3): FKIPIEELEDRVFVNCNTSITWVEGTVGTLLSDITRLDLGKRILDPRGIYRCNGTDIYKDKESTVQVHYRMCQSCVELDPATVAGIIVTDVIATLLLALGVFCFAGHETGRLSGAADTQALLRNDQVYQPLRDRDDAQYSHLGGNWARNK
T2 sequence (P09693 23-182 limits assumed, chain 3 of 3): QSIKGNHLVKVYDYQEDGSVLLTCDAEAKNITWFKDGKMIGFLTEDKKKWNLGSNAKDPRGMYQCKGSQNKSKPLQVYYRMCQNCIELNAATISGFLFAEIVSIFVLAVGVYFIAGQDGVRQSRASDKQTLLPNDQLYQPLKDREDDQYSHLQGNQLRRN

B1: PR003899 (bispecific antibody, human IgG1, lambda, L234A L235A)
light: QAVVTQEPSLTVSPGGTVTLTCRSSTGAVTTSNYANWVQQKPGQAPRGLIGGTNKRAPWTPARFSGSLLGDKAALTLLGAQPEDEAEYFCALWYSNLWVFGGGTKLTVLGQPKAAPSVTLFPPSSEELQANKATLVCLISDFYPGAVTVAWKADSSPVKAGVETTTPSKQSNNKYAASSYLSLTPEQWKSHRSYSCQVTHEGSTVEKTVAPTECS
heavy: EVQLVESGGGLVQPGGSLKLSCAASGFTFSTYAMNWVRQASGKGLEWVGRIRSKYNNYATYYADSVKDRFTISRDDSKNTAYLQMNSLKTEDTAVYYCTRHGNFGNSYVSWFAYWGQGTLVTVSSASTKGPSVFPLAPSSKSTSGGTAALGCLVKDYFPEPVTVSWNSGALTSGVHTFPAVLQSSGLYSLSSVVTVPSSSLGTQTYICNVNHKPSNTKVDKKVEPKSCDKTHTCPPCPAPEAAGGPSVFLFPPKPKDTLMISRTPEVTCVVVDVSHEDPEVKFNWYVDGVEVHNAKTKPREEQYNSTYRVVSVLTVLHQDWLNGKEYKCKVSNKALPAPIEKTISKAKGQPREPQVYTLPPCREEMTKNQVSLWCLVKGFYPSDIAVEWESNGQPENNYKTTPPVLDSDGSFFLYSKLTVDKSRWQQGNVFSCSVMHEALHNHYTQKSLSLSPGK
chain: EIVMTQSPASLSVSPGERATLSCRASQSVSSNLAWYQQKPGQAPRLLIYGASTRATGIPARVSGGGSGTEFTLTISSLQSEDFAVYYCQQYKNWPFTFGPGTKLEIKGGGGSGGGGSGGGGSGGGGSQVQLVQSGAEVKKPGSSMRVSCKASEDTFSSYAISWVRQAPGQGLEWMGGTAPIFGTTNYAQKFQGRVTITADKSTSTAYMELSSLRSEDTAVYYCARGGPYFDYWGQGTLVTVSSASEPKSSDKTHTCPPCPAPEAAGGPSVFLFPPKPKDTLMISRTPEVTCVVVDVSHEDPEVKFNWYVDGVEVHNAKTKPREEQYNSTYRVVSVLTVLHQDWLNGKEYKCKVSNKALPAPIEKTISKAKGQPREPQVCTLPPSREEMTKNQVSLSCAVKGFYPSDIAVEWESNGQPENNYKTTPPVLDSDGSFFLVSKLTVDKSRWQQGNVFSCSVMHEALHNHYTQKSLSLSPGK
notes: B7H4 x CD3, 1+1 Fab-Fc-scFv: CD3 Fab from PR003886 (knob, LALA; weak CD3 end), B7H4 scFv(VL-VH)-Fc (hole, LALA)
- EC50 [1]: 51.2 nM
- Maximum MFI [1]: 227000
- binding result (CD3 on human T cells [2]): no binding (tested: 100 nM)

B2: PR002994 (bispecific antibody, human IgG1, kappa, lambda, L234A L235A)
chain 1: EVQLLESGGGLVQPGGSLRLSCAASGFTFSTYAMNWVRQAPGKGLEWVSRIRSKYNNYATYYADSVKDRFTISRDDSKSTLYLQMNSLRAEDTAVYYCVRHGNFGNSYVSWFAYWGQGTLVTVSSASTKGPSVFPLAPSSKSTSGGTAALGCLVKDYFPEPVTVSWNSGALTSGVHTFPAVLQSSGLYSLSSVVTVPSSSLGTQTYICNVNHKPSNTKVDKKVEPKSC
chain 2: not shown
heavy: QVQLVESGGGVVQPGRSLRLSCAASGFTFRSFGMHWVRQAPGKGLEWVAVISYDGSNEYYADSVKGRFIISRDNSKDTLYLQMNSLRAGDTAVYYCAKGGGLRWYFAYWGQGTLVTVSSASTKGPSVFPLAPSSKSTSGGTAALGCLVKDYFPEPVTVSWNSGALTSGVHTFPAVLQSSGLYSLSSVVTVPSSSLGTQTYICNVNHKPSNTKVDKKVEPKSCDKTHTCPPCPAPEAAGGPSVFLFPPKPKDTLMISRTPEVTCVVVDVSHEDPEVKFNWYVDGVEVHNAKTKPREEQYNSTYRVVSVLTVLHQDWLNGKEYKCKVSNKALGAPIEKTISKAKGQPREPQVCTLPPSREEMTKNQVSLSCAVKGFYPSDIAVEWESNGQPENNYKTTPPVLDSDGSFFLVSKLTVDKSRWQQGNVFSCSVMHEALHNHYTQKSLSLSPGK
light: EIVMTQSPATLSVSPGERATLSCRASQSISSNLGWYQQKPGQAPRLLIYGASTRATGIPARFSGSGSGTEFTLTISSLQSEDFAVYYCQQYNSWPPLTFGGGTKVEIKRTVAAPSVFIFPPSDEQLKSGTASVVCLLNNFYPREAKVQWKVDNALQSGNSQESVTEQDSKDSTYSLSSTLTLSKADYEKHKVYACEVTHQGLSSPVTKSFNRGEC
notes: B7H4 x CD3, 2+1 asymmetric structure (structure 6): CD3 end from PR001924, two B7H4 Fabs from PR001476
- Maximum MFI [1]: 183000
- Maximum MFI (CD3 on human T cells [3]): 73000
- EC50 [4]: 0.006 nM

The remaining lines, values ahead:

- EC50 (CD3 on human T cells [5]): 7.5 nM
- EC50 (CD3 on human T cells [6]): 7.5 nM
- EC50 (CD3 on human T cells [2]): 6.1 nM
- EC50 (CD3 on human T cells [7]): 7.5 nM
B3: PR001924 (antibody, V domains shown)
VH: EVQLLESGGGLVQPGGSLRLSCAASGFTFSTYAMNWVRQAPGKGLEWVSRIRSKYNNYATYYADSVKDRFTISRDDSKSTLYLQMNSLRAEDTAVYYCVRHGNFGNSYVSWFAYWGQGTLVTVSS
VL: QAVVTQEPSLTVSPGGTVTLTCRSSTGAVTTSNYANWVQQKPGQAPRGLIGGTNKRAPWTPARFSGSLLGDKAALTLLGAQPEDEAEYFCALWYSNLWVFGGGTKLTVLG
notes: also called PR001924 (αCD3 IgG)

- binding result [8]: binds
B4: PR002405 (antibody, human IgG1, kappa, V domains shown)
VH: QVQLVESGGGVVQPGRSLRLSCAASGFTFRSFGMHWVRQAPGKGLEWVAVISYEGSNEYYADSVKGRFIISRDNSKDTLYLQMNSLRAGDTAVYYCAKGGGLRWYFAYWGQGTLVTVSS
VL: EIVMTQSPATLSVSPGERATLSCRASQSISSNLGWYQQKPGQAPRLLIYGASTRATGIPARFSGSGSGTEFTLTISSLQSEDFAVYYCQQYQSWPPLTFGGGTKVEIKR
notes: variant of PR001476 (H: D54E); also called PR002405 supernatant

- Competitive inhibition rate (%) [9]: 4.49%
- Kd [10]: 4.45 nM
- koff [10]: 0.00116 s⁻¹
- kon [10]: 261000 M⁻¹ s⁻¹
- Competitive inhibition rate (%) [11]: 95.8%
- Competitive inhibition rate (%) [12]: 6.32%
- Competitive inhibition rate (%) [13]: 96.6%
B5: Control antibody 2 (PR002962) (antibody, human IgG1, kappa, V domains shown)
VH: QLQLQESGPGLVKPSETLSLTCTVSGGSIKSGSYYWGWIRQPPGKGLEWIGNIYYSGSTYYNPSLRSRVTISVDTSKNQFSLKLSSVTAADTAVYYCAREGSYPNQFDPWGQGTLVTVSS
VL: EIVMTQSPATLSVSPGERATLSCRASQSVSSNLAWYQQKPGQAPRLLIYGASTRATGIPARFSGSGSGTEFTLTISSLQSEDFAVYYCQQYHSFPFTFGGGTKVEIKR
notes: Anti-B7H4 IgG1 control antibody from WO2019040780A1 (FivePrime), Fc mutated on the basis of PR002961 to enhance ADCC
